Experimental data: patent US20230212254A1 (published 2023)

Target: T1, FITC-labeled recombinant human PSMA protein (Acro, #PSA-HF244) (human, UniProt Q04609 44-750, FITC label)
T1 construct: Bought reagent
Test: flow cytometry, gating of CAR(+) cells for T cell subset analysis (FIG. 79)
Description: Eight days after the start of stimulation, the CAR-T cells constructed in Example 8 were analyzed for T cell subsets using a flow cytometer: they were classified into stem cell-like memory T cells (T memory stem cells, CD45RA⁺CCR7⁺), central memory T cells (CD45RA⁻CCR7⁺), effector memory T cells (CD45RA⁻ CCR7⁻) and effector T cells (CD45RA⁺CCR7⁻) according to the presence or absence of the expression of CD45RA and CCR7. […] In addition, when analyzing PSMA-specific CAR(+) cells, FITC-labeled recombinant human PSMA protein (Acro, #PSA-HF244) was used to stain the CAR.

T1 sequence (Q04609 44-750 limits assumed): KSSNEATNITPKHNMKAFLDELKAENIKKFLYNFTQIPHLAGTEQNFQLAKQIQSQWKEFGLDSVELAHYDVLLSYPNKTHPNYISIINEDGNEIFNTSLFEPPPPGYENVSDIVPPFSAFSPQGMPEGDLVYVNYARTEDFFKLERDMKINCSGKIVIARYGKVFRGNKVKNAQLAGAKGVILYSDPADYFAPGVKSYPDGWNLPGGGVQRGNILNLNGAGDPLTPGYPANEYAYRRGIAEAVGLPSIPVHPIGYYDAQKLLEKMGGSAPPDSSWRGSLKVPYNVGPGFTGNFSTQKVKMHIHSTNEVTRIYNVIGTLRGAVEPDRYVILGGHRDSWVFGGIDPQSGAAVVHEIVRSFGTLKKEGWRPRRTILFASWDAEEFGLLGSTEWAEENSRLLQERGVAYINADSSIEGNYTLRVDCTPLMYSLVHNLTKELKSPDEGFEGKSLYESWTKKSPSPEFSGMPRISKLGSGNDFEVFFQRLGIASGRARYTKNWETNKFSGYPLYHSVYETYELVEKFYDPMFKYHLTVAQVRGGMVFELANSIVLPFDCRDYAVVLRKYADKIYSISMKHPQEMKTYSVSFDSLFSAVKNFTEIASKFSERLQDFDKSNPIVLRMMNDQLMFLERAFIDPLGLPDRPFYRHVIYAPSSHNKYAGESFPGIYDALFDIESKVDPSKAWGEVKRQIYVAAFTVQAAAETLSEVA

binding result: binds
B1: PSMA-specific CAR (Pbbz): scFv derived from the PSMA-specific J591 antibody, CD8 hinge-transmembrane domain, 4-1BB co-stimulatory domain, CD3ζ intracellular … (other)
chain: DIVMTQSHKFMSTSVGDRVSIICKASQDVGTAVDWYQQKPGQSPKLLIYWASTRHTGVPDRFTGSGSGTDFTLTITNVQSEDLADYFCQQYNSYPLTFGAGTMLDLKRGGGGSGGGGSGGGGSEVQLQQSGPELKKPGTSVRISCKTSGYTFTEYTIHWVKQSHGKSLEWIGNINPNNGGTTYNQKFEDKATLTVDKSSSTAYMELRSLTSEDSAVYYCAAGWNFDYWGQGTTLTVSSTTTPAPRPPTPAPTIASQPLSLRPEACRPAAGGAVHTRGLDFACDIYIWAPLAGTCGVLLLSLVITLYCKRGRKKLLYIFKQPFMRPVQTTQEEDGCSCRFPEEEEGGCELRVKFSRSADAPAYQQGQNQLYNELNLGRREEYDVLDKRRGRDPEMGGKPRRKNPQEGLYNELQKDKMAEAYSEIGMKGERRRGKGHDGLYQGLSTATKDTYDALHMQALPPR
notes: The Pbbz#F, #C, #S2 and #FCS2 cells are treated as carrying the same CAR
